Among the data in US20090197263, “Compare-MS: Method Rapid, Sensitive and Accurate Detection of DNA Methylation” (published 2009) are EC50 values, retold here.

Series [1] addresses T1, MBD2-MBD (methyl-binding domain of MBD2) (Homo sapiens, UniProt Q9UBB5 Q9UBB5:145-213). The series is described as follows: FP; 10 nM hairpin; 50 mM NaCl, 1 mM MgCl2, 10 mM Tris pH 7.4, room temp. Particulars: tags: C-terminal 6xHis (pFBC6H baculovirus vector, Sf9), label: 5'-6FAM. Here is the method:
(§1) 10 nM of annealed, fluorescently-labeled hairpin oligonucleotides with the sequence 5′-6FAM-[…]-3′ (SEQ ID NO:4) with no methylated CpGs (unmethylated hairpin), 2 methylated CpGs at the 2nd and 5th CpGs from the 5′ end (1 symmetrically methylated CpG hairpin), 3 methylated CpGs toward the 3′ end (3 asymmetrically methylated CpG hairpin), 4 methylated CpGs at the 1st, 2nd, 5th, and 6th CpGs from the 5′ end (2 symmetrically methylated CpG hairpin), or 6 methylated CpGs (3 symmetrically methylated CpG hairpin) were incubated with various concentrations of recombinant MBD2-MBD in a 50 μL reaction volume containing 4% glycerol, 1 mM MgCl₂, 0.5 mM EDTA, 0.5 mM DTT, 50 mM NaCl, 10 mM Tris-HCl (pH 7.4), 0.2% Tween-20 for 1 hour at room temperature with gentle shaking. Fluorescence polarization measurements were taken in triplicate using a Beckman Coulter DTX 880 Multimode Detector as described previously (Lee et al., (2005), supra). Briefly, fluorescence anisotropies (r) were calculated as
(§2) 6His-tagged methyl-binding domain of human MBD2 (MBD2-MBD) was expressed in Sf9 insect cells using a baculoviral expression system and purified using Ni-NTA Superflow beads (Qiagen, Valencia, Calif.). The affinities of MBD2-MBD for fluorescently labeled hairpin oligonucleotides containing various configurations of CpG methylation were then determined by fluorescence polarization (FIG. 2). […]

Series [2] concerns the target T1, MBD2-MBD (methyl-binding domain of MBD2). The series is described as follows: FP; 10 nM hairpin; 50 mM NaCl, 1 mM MgCl2, 10 mM Tris pH 7.4, room temp; text gives 2 or 3 sites as 156 and 222 nM respectively but cites FIGS. 2A (three pairs) and. The note with it: tags: C-terminal 6xHis (pFBC6H baculovirus vector, Sf9), label: 5'-6FAM. Here is the method:
as §1, §2

Usually EC50 stands for the concentration at which the effect is half-maximal. A lower EC50 goes with a more potent agent.

T1 sequence (Q9UBB5 145-213, one chain of several): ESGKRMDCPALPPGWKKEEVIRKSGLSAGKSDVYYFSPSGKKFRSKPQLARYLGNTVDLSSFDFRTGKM

Molecule ATCGTCGTACGTTTTCGTACGACGAT (structured_DNA, 5mC at 2nd and 5th CpGs from 5' end (C6, C20)) [1 symmetrically methylated CpG hairpin] registered an EC50 in series [1] of 519 nM.

ATCGTCGTACGTTTTCGTACGACGAT (structured_DNA, 5mC at 1st, 2nd, 5th and 6th CpGs from 5' end (C3, C6, C20, C23)) [2 symmetrically methylated CpG hairpin] came in with an EC50 in series [2] of 156 nM.
